Experimental data as given in patent US8822645B2, “Prostaglandin E2 dual variable domain immunoglobulins and uses thereof” (AbbVie Inc., priority 2008, dated 2014).

Experiments:
[1] = Size exclusion chromatography, percent monomer of parent antibodies and DVD-Ig constructs; type: physicochemical
Description: Antibodies were diluted to 2.5 mg/mL with water and […] is analyzed on a Shimadzu HPLC system using a TSK gel G3000 SWXL column (Tosoh Bioscience, cat#k5539-05k). […] The HPLC system operating conditions are the following: […]

[2] = PGE2-biotinamide ELISA (PGE2 binding); settings: PGE2 VD in C-terminal position, read-out: Direct Bind ELISA C-terminal VD EC50
Outline: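 Antibody or DVD-Ig (1 µg/ml) captured on anti-host Fc IgG-coated plates for 1 h at room temperature, then titrated with PGE2-biotinamide serially diluted from 30 nM for 1 h. Binding detected with streptavidin-polyHRP and TMB, absorbance read at 450 nm; EC50 from the titration curve.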

- EC50 [2]: 1.65 nM
B1: DVD152: DVD-Ig construct listed in Table 4 (antibody)
VH: EVQLQESGPGLVRPSQTLSLTCTVSGYSITSDHAWSWVRQPPGRGLEWIGYISYSGITTYNPSLKSRVTMLRDTSKNQFSLRLSSVTAADTAVYYCARSLARTTAMDYWGQGSLVTVSSASTKGPEVQLVQSGAEVKKPGASVKVSCKASGYTFTKYWLGWVRQAPGQGLEWMGDIYPGYDYTHYNEKFKDRVTLTTDTSTSTAYMELRSLRSDDTAVYYCARSDGSSTYWGQGTLVTVSS
VL: DIQMTQSPSSLSASVGDRVTITCRASQDISSYLNWYQQKPGKAPKLLIYYTSRLHSGVPSRFSGSGSGTDFTFTISSLQPEDIATYYCQQGNTLPYTFGQGTKVEIKRTVAAPDVLMTQTPLSLPVTPGEPASISCTSSQNIVHSNGNTYLEWYLQKPGQSPQLLIYKVSNRFSGVPDRFSGSGSGTDFTLKISRVEAEDVGVYYCFQVSHVPYTFGGGTKVEIKR
- % Monomer (purity) [1]: 87.6%
